Test system: CIZ1 N571 (GST-N571) (Mus musculus)
Test: EMSA
Conditions: 0.3 nM RNA; 10 mM Tris-HCl pH 7.5, 30 mM NaCl, 2.5 mM MgCl2, 0.2 mM DTT, 0.1% IGEPAL CA-630, 0.1 mg/ml yeast tRNA, 0.4 U RNaseOUT, 1% glycerol; 30 C 20 min; 0.7% agarose …

Substance Xist repeat A has a K half of 200 nM.

With Xist repeat E proximal the K half was 100 nM.
